Patent US20220380482A1

Biological target: human neonatal Fc receptor (FcRn) (human) (UniProt P55899)
Experiment: SPR (Biacore T200), FcRn amine-coupled to CM5 chip, antibody as analyte, steady state fit, pH 6.0

Kd | Substance
2370 nM | Irrelevant IgG1 (antibody)
3250 nM | Irrelevant IgG4 (antibody)
